Experiment [1] addresses 6535.3 SOSIP (chimeric SOSIP Env trimer: gp120 from 6535.3, gp41 from BG505 with MD39 substitutions) (HIV-1 strain 6535.3 | HIV-1 strain BG505). In words: mass photometry; Fab-SOSIP complexes formed at room temperature in TBS overnight, 4 uM trimer, 1.05 molar excess of Fab to SOSIP protomer, not purified by SEC; diluted to 8 nM trimer and a further 10-fold (6535.3) or 4-fold (JRCSF) on the instrument; SOSIP alone as control. On the technique in general: In gel filtration, larger molecules generally elute earlier.

For experiment [2], the target named is JRCSF SOSIP (chimeric SOSIP Env trimer: gp120 from JRCSF.JB, gp41 from BG505 with MD39 substitutions) (HIV-1 strain JRCSF.JB | HIV-1 strain BG505). The description is as above.
For experiment [3] the target is unchanged. In words: cryo-EM structure; SOSIP complexed with Fab at room temperature overnight, about 1.3:1 molar excess Fab:SOSIP protomer; SEC (Superose 6 Increase) in TBS; ~1.1 mg/mL (JRCSF/Ab1456) or ~1.9 mg/mL (6535.3/Ab1271); no sCD4 or CD4 mimetic.
For experiment [4] the target is unchanged. The description is as above. This is another data set of the same source.
For experiment [5] the target is unchanged. The experiment is described as above. This is another data set of the same source.
Experiment [6] concerns the target 6535.3 SOSIP (chimeric SOSIP Env trimer: gp120 from 6535.3, gp41 from BG505 with MD39 substitutions) (HIV-1 strain 6535.3 | HIV-1 strain BG505). The description is as above.

Like-named read-outs stand apart in the source and are kept apart here.

Broadly, the stoichiometry N is a count of units in the complex or per binding partner. As to “6535.3 SOSIP (chimeric SOSIP Env trimer: gp120 from 6535.3, gp41 from BG505 with MD39 substitutions) (complex)”, the stoichiometry N in experiment [1] came out at 3.

With “JRCSF SOSIP (chimeric SOSIP Env trimer: gp120 from JRCSF.JB, gp41 from BG505 with MD39 substitutions) (complex)”, the stoichiometry N in experiment [2] came to 3.

B1: Ab1456 Fab (Fab, V domains shown)
VH: QVQLVESGAEVKRPGDSLKISCKTSGDVFTSTWITWVRQMPGKDLEWMASIYLDDSDTQYNPSFQGHVTISADKSINTIYLQLSSLKVSDTATYYCAKWGVDCSDSGCSSAFDSWGQGVLVTVSS
VL: SYELTQPPSVSGAPGQRVTISCTGGTSNIGNYYVQWYQQLPGTAPKLLIYENNKRPSGISDRFSGSQSGTSGSLTITTGLQSEDEADYFCQSYDDSLSAHVFGSGTKVTIL
Take B1: the stoichiometry N (Fab per trimer) in experiment [3] is 1; in experiment [4], 3; in experiment [5], 2.

B2: Ab1271 Fab (Fab, V domains shown)
VH: QVQLVESGPGLVKPSETLSLTCAVSGDSISSTWWNWIRQPPGKGLEWIGRISGDGGNTDYSPSLKSRVTISTDTSKNQLSLRLTSVAAADTAVYFCAAPDCSGPDCSPGFDYWGPGVLVTVSS
VL: QPVLTQPPSVSGAPGQRVTISCTGSSSDIGRFYVQWYQQLPGTAPKLLIYENTKRPSGISDRFSGSQSGPSASLTITGLQSEDEADYYCQSYDSSMSAHVLFGGGTRLTVL
With B2, the stoichiometry N (Fab per trimer) in experiment [6] and in experiment [1] was 1 in each case.

These data come from article PMC11621127.
